Reference: patent publication US20170226216A1

Biological target: recombinant human BCMA protein conjugated to IgG1 Fc-PE (human) (UniProt Q02223)
Experiment: flow cytometry, CAR T cells stained with BCMA-IgG1 Fc-PE

Chain of UniProt Q02223 (Q02223 1-54 limits assumed): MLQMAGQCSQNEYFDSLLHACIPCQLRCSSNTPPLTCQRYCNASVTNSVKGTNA

T cells stained with BCMA-IgG1 Fc-PE (CAR surface expression), Donor 1: 86.2
B1: humanized anti-BCMA-10.2 CAR (protein)
chain: DIVLTQSPASLAVSLGERATINCRASESVSVIGAHLIHWYQQKPGQPPKLLIYLASNLETGVPARFSGSGSGTDFTLTISSLQAEDAAIYYCLQSRIFPRTFGQGTKLEIKGSTSGSGKPGSGEGSTKGQVQLVQSGSELKKPGASVKVSCKASGYTFTDYSINWVRQAPGQGLEWMGWINTETREPAYAYDFRGRFVFSLDTSVSTAYLQISSLKAEDTAVYYCARDYSYAMDYWGQGTLVTVSSAAADTGLYICKVELMYPPPYYLGIGNGTQIYVIDPEPCPDSDFLLWILAAVSSGLFFYSFLLTAVSKRGRKKLLYIFKQPFMRPVQTTQEEDGCSCRFPEEEEGGCELRVKFSRSADAPAYQQGQNQLYNELNLGRREEYDVLDKRRGRDPEMGGKPRRKNPQEGLYNELQKDKMAEAYSEIGMKGERRRGKGHDGLYQGLSTATKDTYDALHMQALPPR
